Experimental data taken from patent US20200239579A1 (Genmab, published 2020).

Columns and labels:
[1] = biological target: T1, PDLoneECDHisCtag (human, UniProt Q9NZQ7 19-238); assay: BLI cross-block, second antibody on PDLoneECDHisCtag held by immobilised MPDL; bold = blocking
T1 construct: Expressed in HEK-293F cells; theoretical molecular weight 29 kDa; also called recombinant human PD-L1 ECD; human PD-L1 (BLI); not shown: C-terminal His-tag; C-tag
Procedure: (§1) Antibody cross-block testing was performed using biolayer interferometry (BLI) on an Octet HTX instrument (ForteBio). Antibodies (20 μg/ml in 10 mM sodium acetate buffer pH 6.0 (ForteBio)) were immobilized on Amine-Reactive 2nd Generation (AR2G) biosensors (ForteBio) according to the instructions of the manufacturer. After a baseline (50 s) in Sample Diluent (ForteBio), biosensors containing immobilized antibodies were loaded for 500 s with PDLoneECDHisCtag (100 nM or 2.7 μg/ml), after which the association response of a second antibody (10 μg/ml) was followed for 500 s. Biosensors were regenerated by using 3 times 5 s alternating exposures to 10 mM glycine pH 2.5 and Sample Diluent. The experiment was repeated with a new set of second antibodies starting from the baseline step. Each biosensor was used 6 times. The experiment was performed at 30° C. using a shaker speed of 1000 rpm. Data was analyzed using Data Analysis Software v9.0.0.12 (ForteBio). The Y-axis was aligned to the association step and Savitzky-Golay filtering was applied. The average buffer response was subtracted from the association response of the second antibody in order to correct for the dissociation of PDLoneECDHisCtag from the immobilized antibody. The corrected association responses were plotted in a matrix format.

[2] = biological target: T1, PDLoneECDHisCtag; assay: BLI cross-block, second antibody on PDLoneECDHisCtag held by immobilised 632; plain = non-blocking
Procedure: as §1

[3] = biological target: T1, PDLoneECDHisCtag; assay: BLI cross-block, second antibody on PDLoneECDHisCtag held by immobilised 547; plain = non-blocking
Procedure: as §1

[4] = biological target: T1, PDLoneECDHisCtag; assay: BLI cross-block, second antibody on PDLoneECDHisCtag held by immobilised 511-LC33S; plain = non-blocking
Procedure: as §1

[5] = biological target: T1, PDLoneECDHisCtag; assay: BLI cross-block, second antibody on PDLoneECDHisCtag held by immobilised 476-N101Q-LC33S; plain = non-blocking
Procedure: as §1

[6] = biological target: T1, PDLoneECDHisCtag; assay: BLI cross-block, second antibody on PDLoneECDHisCtag held by immobilised 516; bold = blocking
Procedure: as §1

[7] = biological target: T1, PDLoneECDHisCtag; assay: BLI cross-block, second antibody on PDLoneECDHisCtag held by immobilised 421-LC91S; bold = blocking
Procedure: as §1

[8] = biological target: T2, cynomolgus monkey PD-L1 (full length, on CHO cells) (cynomolgus monkey (Macaca fascicularis), UniProt G7PSE7 19-290); assay: flow cytometry on CHO cells transfected with cynomolgus PD-L1, PE anti-human IgG secondary, MFI (PE)
T2 construct: whole, on cells; also called PDL1 Mf; cynomolgus PD-L1
Procedure: (§2) Cells (3-5×10⁴ cells/well) were incubated in polystyrene 96-well round-bottom plates (Greiner bio-one, cat. no. 650101) with serial dilutions of antibodies (range 0.0001 to 10 μg/mL in 5-fold dilution steps) in 50 μL PBS/0.1% BSA/0.02% azide (staining buffer) at 4° C. for 30 min.
(§3) After washing twice in staining buffer, cells were incubated in 50 μL secondary antibody at 4° C. for 30 min. As a secondary antibody, R-Phycoerythrin (PE)-conjugated goat-anti-human IgG F(ab′)₂ (Cat. no. 109-116-098, Jackson ImmunoResearch Laboratories, Inc., West Grove, Pa.) diluted 1:500 in staining buffer, was used for all experiments. Next, cells were washed twice in staining buffer, re-suspended in 20 μL staining buffer and analyzed on an iQue screener (Intellicyt Corporation, USA). Binding curves were analyzed using non-linear regression (sigmoidal dose-response with variable slope) using GraphPad Prism V75.04 software (GraphPad Software, San Diego, Calif., USA).
Binding to CHO cells expressing cynomolgus PD-L1 was determined by flow cytometry using a method as described above.

[9] = biological target: T3, human PD-L1 (full length, on cells) (human, UniProt Q9NZQ7 19-290); assay: flow cytometry on PC3 cells, PE anti-human IgG secondary, MFI (PE)
T3 construct: The entry holds the signal peptide; also called CD274; B7H1
Procedure: as §2, §3

[10] = biological target: T3, human PD-L1 (full length, on cells); assay: flow cytometry on MDA-MB-231 cells, PE anti-human IgG secondary, MFI (PE)
Procedure: as §2, §3

[11] = biological target: T3, human PD-L1 (full length, on cells); assay: flow cytometry on HELA cells, PE anti-human IgG secondary, MFI (PE)
Procedure: as §2, §3

[12] = biological target: T4, human PD-L2 (full length, on CHO cells) (human, UniProt Q9BQ51 20-273); assay: flow cytometry on CHO cells expressing human PD-L2
T4 construct: whole, on cells; also called CHO-PD-L2 cells
T4 sequence (looked up): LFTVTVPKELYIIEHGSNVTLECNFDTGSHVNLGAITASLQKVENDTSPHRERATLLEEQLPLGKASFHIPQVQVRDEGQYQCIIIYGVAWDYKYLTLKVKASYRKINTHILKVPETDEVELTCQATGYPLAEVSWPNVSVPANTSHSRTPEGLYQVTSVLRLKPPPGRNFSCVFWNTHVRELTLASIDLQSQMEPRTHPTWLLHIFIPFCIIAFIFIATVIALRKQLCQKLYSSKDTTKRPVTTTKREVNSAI
Procedure: as §2, §3
A PE-conjugated PD-L2 specific antibody (Mylteni, clone MIH18; cat. no. 130-098-651) was used as positive control.

[13] = biological target: T3, human PD-L1 (full length, on cells); assay: flow cytometry on MDA-MB-231 cells, PE anti-human IgG secondary, MFI (PE); remark: listed apart in the source
Procedure: as §2, §3

[14] = biological target: T3, human PD-L1 (full length, on cells); assay: flow cytometry on HEK293 cells expressing wild type or alanine-mutant PD-L1

T3 sequence (Q9NZQ7 19-290 limits assumed): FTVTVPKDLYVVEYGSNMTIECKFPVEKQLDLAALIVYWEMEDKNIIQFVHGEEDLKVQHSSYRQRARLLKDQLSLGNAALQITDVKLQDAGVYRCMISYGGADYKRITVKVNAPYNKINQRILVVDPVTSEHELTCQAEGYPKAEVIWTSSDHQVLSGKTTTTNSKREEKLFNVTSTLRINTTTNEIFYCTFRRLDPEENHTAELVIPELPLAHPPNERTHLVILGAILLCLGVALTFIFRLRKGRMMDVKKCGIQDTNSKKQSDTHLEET
T1 sequence (Q9NZQ7 19-238, form in doubt): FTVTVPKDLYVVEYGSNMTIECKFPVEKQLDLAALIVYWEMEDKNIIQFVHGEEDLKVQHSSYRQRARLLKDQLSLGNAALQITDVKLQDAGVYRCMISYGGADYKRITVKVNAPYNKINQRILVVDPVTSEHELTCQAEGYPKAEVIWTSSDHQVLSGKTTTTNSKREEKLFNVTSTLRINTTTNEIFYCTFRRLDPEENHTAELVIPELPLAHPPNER
T2 sequence (G7PSE7 entry or part of it): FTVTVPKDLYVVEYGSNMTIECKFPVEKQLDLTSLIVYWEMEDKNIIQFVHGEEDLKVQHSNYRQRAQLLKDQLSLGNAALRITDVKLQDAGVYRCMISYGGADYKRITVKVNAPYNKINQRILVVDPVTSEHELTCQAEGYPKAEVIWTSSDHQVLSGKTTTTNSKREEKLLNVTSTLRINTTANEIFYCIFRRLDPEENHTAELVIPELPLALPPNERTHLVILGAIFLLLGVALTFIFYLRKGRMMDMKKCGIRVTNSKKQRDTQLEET

B1: IgG1-516-FEAR (antibody, V domains shown)
VH: QVQLQESGPGLVKPSDTLSLTCAVSDYSISSNDWWGWIRQPPGKGLEWIGYIYYSGTGYYNPSLKSRVTISIDTSKNQFSLKLNSVTAVDTAVYYCARTRVGARRAFDYWGQGTLVTVSS
VL: SYVLTQPPSVSVAPGQTARITCGGNNIGSKSVHWYQQKPGQAPVLVVYDDSDRPSGIPERFSGSNSGNTATLTISRVEAGDEADYYCQVWDSSSDHVVFGGGTKLTVL
With B1 the “association response of the second antibody” value (shortened to “association response”) [1] was 0 nm, the “association response” value [2] was 0.6 nm and the “association response” value [3] was 0.7 nm. For the same binder, the “association response” value [4] was 0.6 nm, the “association response” value [5] was 0.7 nm and the “association response” value [6] was 0 nm. The “association response” value [7] was 0 nm.

B2: bsIgG1-huCD3-H1L1-FEAL×338-FEAR (bispecific antibody)
heavy 1: not shown
VL: not shown
heavy 2: EVQVVESGGGLVQPGGSLRLSCAASGFTFSRFWMSWVRQAPGKGLEWVANIKQDGGEKYYVDSVKGRFTISRDNAKNSLYLQMNSLRGEDTAVYYCARDDNWNGHFDYWGQGTLVTVSSASTKGPSVFPLAPSSKSTSGGTAALGCLVKDYFPEPVTVSWNSGALTSGVHTFPAVLQSSGLYSLSSVVTVPSSSLGTQTYICNVNHKPSNTKVDKRVEPKSCDKTHTCPPCPAPEFEGGPSVFLFPPKPKDTLMISRTPEVTCVVVAVSHEDPEVKFNWYVDGVEVHNAKTKPREEQYNSTYRVVSVLTVLHQDWLNGKEYKCKVSNKALPAPIEKTISKAKGQPREPQVYTLPPSREEMTKNQVSLTCLVKGFYPSDIAVEWESNGQPENNYKTTPPVLDSDGSFFLYSRLTVDKSRWQQGNVFSCSVMHEALHNHYTQKSLSLSPGK
light: DIQMTQSPSTLSASVGDRVTITCRASQSISSWLAWYQQKPGKAPNLLIYKASSLESGVPSRFSGSGSGTEFTLTISSLQPDDFATYYCQQYYGSYITFGQGTRLEIKRTVAAPSVFIFPPSDEQLKSGTASVVCLLNNFYPREAKVQWKVDNALQSGNSQESVTEQDSKDSTYSLSSTLTLSKADYEKHKVYACEVTHQGLSSPVTKSFNRGEC
B2 was tested, and the “EC50 (read off the curve)” value [8] was about 0.09 µg/mL, the “EC50 (read off the curve)” value [9] was about 0.03 µg/mL and the “EC50 (read off the curve)” value [10] was about 0.1 µg/mL. For the same binder, the “EC50 (read off the curve)” value [11] was about 0.02 µg/mL and the binding result [12] was “no binding”.

B3: bsIgG1-huCD3-H1L1-FEAL×547-FEAR (bispecific antibody)
heavy 1: not shown
VL: not shown
heavy 2: EVQLLEPGGGLVQPGGSLRLSCEASGSTFSTYAMSWVRQAPGKGLEWVSGFSGSGGFTFYADSVRGRFTISRDSSKNTLFLQMSSLRAEDTAVYYCAIPARGYNYGSFQHWGQGTLVTVSSASTKGPSVFPLAPSSKSTSGGTAALGCLVKDYFPEPVTVSWNSGALTSGVHTFPAVLQSSGLYSLSSVVTVPSSSLGTQTYICNVNHKPSNTKVDKRVEPKSCDKTHTCPPCPAPEFEGGPSVFLFPPKPKDTLMISRTPEVTCVVVAVSHEDPEVKFNWYVDGVEVHNAKTKPREEQYNSTYRVVSVLTVLHQDWLNGKEYKCKVSNKALPAPIEKTISKAKGQPREPQVYTLPPSREEMTKNQVSLTCLVKGFYPSDIAVEWESNGQPENNYKTTPPVLDSDGSFFLYSRLTVDKSRWQQGNVFSCSVMHEALHNHYTQKSLSLSPGK
light: SYVLTQPPSVSVAPGQTARITCGGNNIGSKSVHWYQQKPGQAPVLVVYDDNDRPSGLPERFSGSNSGNTATLTISRVEAGDEADYYCQVWDSSSDHVVFGGGTKLTVLGQPKAAPSVTLFPPSSEELQANKATLVCLISDFYPGAVTVAWKADSSPVKAGVETTTPSKQSNNKYAASSYLSLTPEQWKSHRSYSCQVTHEGSTVEKTVAPTECS
In the case of B3, the “EC50 (read off the curve)” value [8] is reported as about 0.06 µg/mL, the “EC50 (read off the curve)” value [9] is reported as about 0.03 µg/mL and the “EC50 (read off the curve)” value [11] is reported as about 0.02 µg/mL. For the same binder, the binding result [12] was “no binding” and the “EC50 (read off the curve)” value [13] was about 0.08 µg/mL.

B4: IgG1-625-FEAR-A488 (antibody, V domains shown)
VH: HMQLVESGGGVAQPGRSLRLSCAASGFTFSNYGMHWVRQAPGRGLEWLAVMSYDGETKYYADSVKGRFTISRDNSENTLFLQMNSLRAEDTAVYYCAKDTSNGWNYYFYGMDVWGQGTTVTVSS
VL: SYELTQPPSVSVSPGQTARITCSGDALPKKFASWYQQKSGQAPVLVIYEDSKRPSGIPERVSGSSSGTMATLTISGAQTEDEADYYCYSTDRSGYHWVFGGGTKLTVL
notes: also called control antibody of the alanine scan
B4: binds [14].
